Assay in all cases: high-speed co-sedimentation
Assay [1] addresses F-actin (skeletal muscle) (Oryctolagus cuniculus, UniProt P68135).
Assay [2] has as its target F-actin (act1-102) (Saccharomyces cerevisiae, UniProt P60010).
Assay [3] concerns the target F-actin (Saccharomyces cerevisiae, UniProt P60010).

B1: Scp1(1-180) 1-180 (protein)
chain: MSYDKKADVTSLDEDLRQLRESKFSPEAIQNIKIWVYKSVLKEIAPPGDLLECLKDGTVLCKLANILYEADTGEANHISWKSSKMPFVQMDQISQFLSFSRKYGVPEDELFQTIDLFEKKDPAIVFQTLKSLSRYANKKHTDRFPVLGPQLSTKKPRPPVKSKPKHLQDGTGWSTFEYGY
With B1, in assay [1], binding was characterised by a dissociation constant (Kd) of 7.1 µM.

B2: Scp1 (protein)
chain: SYDKKADVTSLDEDLRQLRESKFSPEAIQNIKIWVYKSVLKEIAPPGDLLECLKDGTVLCKLANILYEADTGEANHISWKSSKMPFVQMDQISQFLSFSRKYGVPEDELFQTIDLFEKKDPAIVFQTLKSLSRYANKKHTDRFPVLGPQLSTKKPRPPVKSKPKHLQDGTGWSTFEYGYMKGASQATEGVVLGQRRDIV
As to B2, the Kd is 7.9 µM in assay [2], 2.1 µM in assay [1] and 1.3 µM in assay [3].

Source of the values: publication PMC2397485 (2008).
